Two molecules from PMC13267735, “Structural basis of liver de-targeting and neuronal tropism of CNS-targeted AAV capsids” (Molecular therapy : the journal of the American Society of …, 2026) can be followed below.

Settings in all cases: both partners purified
Test [1] has as its target T1, AAV.CAP-B10 capsid (adeno-associated virus serotype 9 (AAV9), UniProt Q6JC40 1-736, 452NGSGQNQ458 to 452DGAATKN458 | 587-588 AQ to DGTLAVPFK).
T1 construct: capsid holds VP1, VP2 and VP3; Whole virus capsid packaging an eGFP genome; VP1/VP2/VP3 assembly; source: HEK293T, triple-transfected (pHelper, capsid and genome plasmids), purified (iodixanol gradient)
The test can be described thus: BLI; BLItz; biotin-conjugated CaptureSelect AAV9 nanobody on streptavidin biosensor, AAV (5x10^12 vg/ml) loaded as biolayer, MBP-tagged PKD2 as analyte at 1.25-80 uM, 120 s association and 120 s dissociation; DPBS, 1% BSA, 0.02% Tween-20; Kd averaged from 3 experiments. On the technique in general: Biolayer interferometry detects binding as a change in optical thickness at a sensor tip.

For the next test, the target named is T2, AAV9-X1.1 capsid (adeno-associated virus serotype 9 (AAV9), UniProt Q6JC40 1-736, 452NGSGQNQ458 to 452DGAATKN458 | GNNTRSV inserted between 588 and 589).
T2 construct: AAV9 capsid protein VP1 with the AAV9-X1 VR-VIII 7-mer insertion GNNTRSV between residues 588 and 589 and the CAP-B10 7-mer in VR-IV (452-458 DGAATKN); capsid holds VP1, VP2 and VP3; Whole virus capsid packaging an eGFP genome (SCP1 promoter); VP1/VP2/VP3 assembly; source: HEK293T, triple-transfected (pHelper, capsid and genome plasmids), purified (iodixanol gradient)
Described as above.

The target of another test is T3, AAV9 (wild-type) capsid (adeno-associated virus serotype 9 (AAV9), UniProt Q6JC40 1-736).
T3 construct: AAV9 capsid protein VP1; VR-IV 452-458 NGSGQNQ, VR-VIII 587-590 AQAQ; Whole virus capsid packaging an eGFP genome; also called wild-type AAV9; source: HEK293T, triple-transfected (pHelper, capsid and genome plasmids), purified (iodixanol gradient)
The test is described as above.

For another test, the target named is T4, AAV9-X1 capsid (adeno-associated virus serotype 9 (AAV9), UniProt Q6JC40 1-736, GNNTRSV inserted between 588 and 589).
T4 construct: capsid holds VP1, VP2 and VP3; Whole virus capsid packaging an eGFP genome; VP1/VP2/VP3 assembly; source: HEK293T, triple-transfected (pHelper, capsid and genome plasmids), purified (iodixanol gradient)
The test is described as above.

The target of a further test is T5, AAV9-B10 capsid (adeno-associated virus serotype 9 (AAV9), UniProt Q6JC40 1-736, 452NGSGQNQ458 to 452DGAATKN458).
T5 construct: AAV9 capsid protein VP1 with the CAP-B10 7-mer in VR-IV (452-458 DGAATKN) and unaltered AAV9 VR-VIII; capsid holds VP1, VP2 and VP3; Whole virus capsid packaging an eGFP genome; VP1/VP2/VP3 assembly; source: HEK293T, triple-transfected (pHelper, capsid and genome plasmids), purified (iodixanol gradient)
The test is described as above.

In test [2] the target is T6, AAV-PHP.eB capsid (adeno-associated virus serotype 9 (AAV9), UniProt Q6JC40 1-736, 587-588 AQ to DGTLAVPFK).
T6 construct: AAV9 capsid protein VP1 with the PHP.eB VR-VIII 7-mer insertion TLAVPFK between residues 588 and 589 and two flanking point mutations (587-588 AQ to DG); capsid holds VP1, VP2 and VP3; Whole virus capsid packaging an eGFP genome; VP1/VP2/VP3 assembly; source: HEK293T, triple-transfected (pHelper, capsid and genome plasmids), purified (iodixanol gradient)
Described as above.

Test [3] deals with T7, eB.24 capsid (adeno-associated virus serotype 9 (AAV9), UniProt Q6JC40 1-736, S454A | Q456T | 587-588 AQ to DGTLAVPFK).
T7 construct: capsid holds VP1, VP2 and VP3; Whole virus capsid packaging an eGFP genome; VP1/VP2/VP3 assembly; also called PHP.eB.24; source: HEK293T, triple-transfected (pHelper, capsid and genome plasmids), purified (iodixanol gradient)
The test is described as above.

The target of test [4] is T1, AAV.CAP-B10 capsid. The test can be described thus: pull-down; 6xHis-tagged bait (AAVR-PKD2 100-200 pmol or His-Fc-LY6A 30-60 pmol) on Ni-NTA resin, prey AAVs (0.05 pmol); DPBS with 20 mM imidazole, 1 hr at 4 C; eluted with 150 mM imidazole; western blot with anti-VP1/VP2/VP3 and anti-6xHis.
The target in test [5] is T6, AAV-PHP.eB capsid. The test is described as above.
Test [6] concerns the target T7, eB.24 capsid. Described as above.

B1: PKD2 domain of AAVR (AA 401-498) fused to maltose binding protein and 6xHis (domain or fragment)
chain: EPRKNRPPIAIVSPQFQEISLPTTSTVIDGSQSTDDDKIVQYHWEELKGPLREEKISEDTAILKLSKLVPGNYTFSLTVVDSDGATNSTTANLTVNKA
notes: AAV receptor (AAVR), polycystic kidney disease domain 2 (PKD2), AA 401-498; Construct for biolayer interferometry; monomer fraction from SEC was used; also called AAVR-PKD2; MBP-tagged AAVR-PKD2; source: E. coli BL21 (DE3)-RIPL, purified (amylose resin, Superdex 200 SEC)
With B1, the dissociation constant (Kd) with AAV.CAP-B10 capsid [1] turned out to be 61 µM; with AAV9-X1.1 capsid, 19 µM; in the test with AAV9 (wild-type) capsid, 11 µM; in the test with AAV9-X1 capsid, 6 µM; in the test with AAV9-B10 capsid it was 47 µM; in the test with AAV-PHP.eB capsid [2], 14 µM. For the same molecule, in the test with eB.24 capsid [3], binding was put at a Kd of 24 µM.

B2: LY6A (AA 1-109) derived from C57BL/6 mice with Fc (human IgG1), Myc and 6xHis tags (Fc fusion, mouse (C57BL/6), UniProt P05533 27-109, looked up)
chain: LECYQCYGVPFETSCPSITCPYPDGVCVTQEAAVIVDSQTRKVKNNLCLPICPPNIESMEILGTKVNVKTSCCQEDLCNVAVP
notes: signal peptide in the construct; LY6A, C57BL/6 mouse, AA 1-109; also called His-Fc-LY6A; source: HEK293T, transiently transfected, secreted into conditioned media, purified (Ni-NTA)
B2: the binding result with AAV.CAP-B10 capsid [4], with AAV-PHP.eB capsid [5] and with eB.24 capsid [6] was “binds” each time.

What is called Kd is the concentration at which binding is half-saturated. The low end stands for a tighter complex, the high end for a looser complex.
